# Reference: article PMC6389388 (Journal of molecular biology, 2019)
# B1: His-tagged hRpn10^196–306 (domain or fragment, human, UniProt P55036 196-306, looked up)
# chain: MLGLGASDFEFGVDPSADPELALALRVSMEEQRQRQEEEARRAAAASAAEAGIATTGTEDSDDALLKMTISQQEFGRTGLPDLSSMTEEEQIAYAMQMSLQGAEFGQAESA
# How the values were obtained:
# M1 diubiquitin = M1 diubiquitin (UniProt P0CG48 1-76; P0CG48 1-76, M1 linkage between the two ubiquitins); assay: pull-down
# [1] = target: B1; assay: NMR structure
# [2] = target: B1; assay: NMR titration
binder,measurement,setting,value
B1,binding result,M1 diubiquitin,binds
"UBQLN2 UBL domain (domain or fragment, human) APAEPKIIKVTVKTPKEKEEFAVPENSSVQQFKEAISKRFKSQTDQLVLIFAGKILKDQDTLIQHGIHDGLTVHLVIK",stoichiometry N,[1],2
same,KD of the secondary binding site (UIM-2),[2],24.8 ± 3.1 µM
